Experimental data reported in the supplement of paper PMC10567573.

B1: PPFIA4 (parent)
chain: PGVHRRYSALREESAKDWETSPLP
B2: PCDHGA10 (parent)
chain: FHELQMQVTASDSGDPPLSSNVSL

Variants of: B1
Test: protein stability index of a GFP-peptide fusion (GPS, HEK-293T) (PSI 1-6); higher = more stable
Conditions: c terminus: a fixed tail appended
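Note: lentivirally expressed fusions sorted by FACS into six bins by GFP to DsRed ratio, PSI derived from sequencing read proportions per bin multiplied by bin number.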

Variant | protein stability index
R11A | 4.31
R11C | 4.37
R11V | 4.21
R11P | 4.19
R11G | 3.41
R11Y | 3.79
R11E | 5.29
R11M | 4.45
R11W | 3.16
R11D | 4.82
R11L | 3.86
R11H | 3.67
R11I | 3.92
R11F | 3.59
R11K | 4.36
R11S | 4.55
R11Q | 4.65
R11T | 4.88
R11N | 4.58
E13H | 2.63
E13W | 2.64
E13M | 2.96
E13S | 3.96
E13G | 3.93
E13N | 3.42
E13T | 3.51

Variant | protein stability index
E13C | 2.38
E13Y | 3.14
E13Q | 4.04
E13I | 3.45
E13K | 3.69
E13P | 3.11
E13L | 3.34
E13D | 3.74
E13V | 4.06
E13A | 3.75
E13F | 3.8
S14H | 4.19
S14P | 3.87
S14K | 5
S14F | 3.63
S14R | 3.07
S14Q | 3.63
S14D | 4.92
S14I | 4.05
S14N | 4.69
S14L | 3.93
S14E | 4.69
S14G | 4.12
S14M | 3.41
L10N | 4.79
L10M | 4.31

Variant | protein stability index
L10W | 4.31
L10Y | 4.02
L10S | 4.53
L10P | 4.97
L10F | 4.29
L10C | 2.28
L10Q | 3.63
L10T | 4.97
L10H | 4.48
L10A | 3.69
L10K | 4.69
L10I | 4.15
L10D | 4.97
L10V | 4.26
E12C | 3.57
E12N | 4.23
E12L | 3.45
E12G | 4.62
E12S | 3.68
E12I | 3.21
E12F | 3.02
E12W | 3.11
E12D | 4.05
E12T | 4.02
E12A | 3.94
E12Y | 3.48

Variant | protein stability index
E12K | 3.96
E12Q | 3.68
E12M | 3.56
E12R | 3.45
E12H | 3.85
E12P | 3.88
V3E | 4.33
V3C | 4.08
V3P | 4.6
V3R | 4.33
V3S | 3.89
V3Y | 3.55
V3D | 4.89
V3F | 4.02
V3T | 4.7
V3M | 5.03
V3N | 4.45
V3H | 4.44
V3L | 3.66
V3Q | 4.42
V3G | 4.84
P1A | 3.5
P1V | 3.74
P1H | 4.36
P1M | 3.51
P1N | 3.88

Variant | protein stability index
P1Q | 4.18
P1T | 4.16
P1C | 2.65
P1K | 4.41
P1G | 4.03
P1D | 3.93
P1E | 3.49
P1F | 3.63
P1L | 3.11
P1I | 4.16
P1Y | 4.17
R5V | 3.67
R5F | 3.99
R5D | 5.06
R5M | 4.71
R5G | 3.96
R5A | 4.86
R5T | 3.91
R5W | 3.81
R5P | 4.54
R5K | 4.34
R5H | 4.27
R5S | 4.58
R5Q | 4.6
R5C | 2.68
R5L | 3.99

Variant | protein stability index
R5Y | 3.66
H4D | 4.37
H4C | 2.79
H4N | 4.52
H4M | 4.49
H4T | 4.36
H4E | 4.53
H4R | 3.42
H4I | 4.14
H4Y | 4.81
H4A | 4.25
H4W | 3.15
H4V | 3.8
H4L | 3.77
H4P | 4.33
R6T | 4.35
R6S | 4
R6M | 3.82
R6N | 4.48
R6F | 3.74
R6L | 3.04
R6A | 4.49
R6I | 3.39
R6D | 4.7
R6K | 4.65
R6Y | 3.62

Variant | protein stability index
R6Q | 4.31
R6G | 3.98
R6C | 3.72
R6E | 4.88
R6W | 2.71
R6P | 3.91
R6H | 3.65
Y7L | 4.18
Y7I | 4.34
Y7G | 4.62
Y7V | 4.49
Y7T | 4.27
Y7E | 5.25
Y7D | 4.38
Y7R | 4.6
Y7K | 4.58
Y7A | 4.8
Y7M | 4.56
Y7N | 4.5
Y7P | 4.24
Y7W | 4.2
Y7H | 4.39
Y7Q | 4.9
Y7C | 3.87
Y7F | 4.13
Y7S | 4.58

Variant | protein stability index
G2R | 4.11
G2T | 4.67
G2V | 4.16
G2N | 4.5
G2H | 3.18
G2S | 4.28
G2K | 3.98
G2Q | 4.43
G2A | 3.85
G2M | 3.62
G2D | 4.4
G2I | 4.51
G2W | 4.36
G2Y | 4.08
G2C | 3.42
S8K | 4.64
S8F | 3.08
S8W | 2.08
S8P | 4.28
S8D | 4.97
S8V | 3.67
S8N | 4.34
S8T | 2.88
S8H | 3.76
S8Q | 4.86
S8E | 4.35

Variant | protein stability index
S8I | 3.62
S8Y | 3.79
S8L | 3.54
S8C | 3.16
S8G | 4.23
S8R | 4.07
A9M | 3.86
A9T | 4.19
A9K | 4.03
A9E | 3.92
A9G | 3.87
A9N | 4.4
A9F | 2.91
A9S | 4.22
A9W | 3.58
A9Y | 3.4
A9Q | 3.5
A9P | 2.93
A9L | 4.27
A9C | 3.67
A9V | 4.12
A9H | 3.92

Variants of: B2
Test: as above
Conditions: c terminus: a fixed tail appended

Variant | protein stability index
M6W | 2.02
M6T | 3.32
M6K | 2.52
M6D | 3.81
V22N | 2.77
V22H | 3.13
V22L | 2.71
V22M | 2.34
V22T | 2.83
L24E | 3.07
L24W | 2.64
L24H | 2.84
L24V | 2.72
L24Q | 3.26
G14H | 2.54
G14A | 2.33
G14V | 2.59
D15R | 2.18
D15A | 2.08
D12I | 2.07
D12F | 2.47
D12G | 2.14
P17H | 1.85
P17Q | 1.93
E3N | 1.7
E3G | 2.69

Variant | protein stability index
E3M | 2.31
E3K | 2.21
E3L | 1.92
S19D | 3.07
S19H | 1.81
S19N | 2.39
Q5C | 1.88
Q5M | 1.91
Q5H | 2.44
Q5N | 2.86
P16K | 2.36
L4D | 3.84
L4S | 3.46
L4N | 3.6
L4H | 2.87
L4E | 4.19
L4G | 2.67
S23V | 2.05
S23G | 2.01
S23F | 2.39
S23P | 2.82
S23I | 1.89
S23W | 2.08
S23N | 2.46
S13F | 1.52
S13V | 1.67

Variant | protein stability index
S13K | 2.01
S13Y | 1.88
S13P | 1.71
S13G | 2.33
S13T | 1.75
S13Q | 2.15
T9N | 2.83
T9P | 3.32
T9D | 2.65
T9S | 2.16
T9G | 2.86
T9L | 1.99
T9Q | 2.73
Q7A | 2.04
Q7D | 3.06
Q7M | 1.7
Q7T | 2.33
V8R | 3.2
V8K | 3.06
V8D | 4.05
V8P | 3.33
V8H | 2.7
V8F | 1.95
L18R | 2.42
L18M | 2.31
L18T | 2.74

Variant | protein stability index
L18N | 2.34
N21R | 1.91
N21L | 2.34
N21C | 2.09
N21Q | 2.05
S20Q | 1.98
S20G | 1.91
S20N | 2.47
S20R | 1.42
S20I | 2.85
H2R | 3.85
H2C | 2.11
H2D | 4.49
H2G | 3.94
F1A | 4.58
F1C | 3.83
F1L | 4.5
F1D | 4.91
F1S | 5.08
F1R | 4.66
S11H | 2.16
S11P | 2.21
S11V | 1.93
A10P | 2.88
A10E | 2.7
A10M | 1.49
